From PMC10203282, “Structural analysis of an endogenous 4-megadalton succinyl-CoA-generating metabolon” (Communications Biology, 2023)

B1: OGDHc (E2o as CoA site) (Thermochaetoides thermophila DSM 1495) (protein)
chain: TYADKIIKVPQMAESITEGTLKQWNKAVGDYVEADEEIATIETDKIDVAVNAPEAGVIKEFFVNEEDTVLVGQDLVRLEVGGEKPAEAAKEQPKAAAPEPKVEEKKVPEAPAPEPSKTAAPAPAPPKQEAPASPKPASKPAETPAVTLGNREERRVKMNRMRLRIAERLKQSQNTAASLTTFNEVDMSALIEFRNKYKDEVLKKTGVKLGFMSAFSRAVVLAIRDLPVVNASIEGPNGGDTIVYRDYVDISVAVATEKGLVTPVVRNAETMDLITIEKTIAELGKKARDGKLTIEDMAGGTFTISNGGVFGSLMGTPIINLPQSAVLGLHAIKERPVAVNGKVEIRPMMYLALTYDHRLLDGREAVQFLVKVKEYIEDPRKMLL
notes: same complex as P1: endogenous native OGDHc in SEC fraction 6 of cell extract; with 2-oxoglutarate dehydrogenase, mitochondrial; Dihydrolipoyl dehydrogenase, mitochondrial; Alpha-ketoglutarate dehydrogenase subunit 4, mitochondrial

Columns and labels:
[1] = target: dihydrolipoyl succinyltransferase (E2o) of the oxoglutarate dehydrogenase complex (Chaetomium thermophilum (endogenous in the native cell extract)); test: cryo-EM structure; native SEC fraction of C. thermophilum lysate, 0.3 mg/mL, single-particle analysis with octahedral symmetry; E2o core map at 3.35 Å
[2] = substrate: CC(C)(COP(=O)(O)OP(=O)(O)OC[C@H]1O[C@@H](n2cnc3c(N)ncnc32)[C@H](O)[C@@H]1OP(=O)(O)O)[C@@H](O)C(=O)NCCC(=O)NCCS; test: cells, lysate or membranes; type: biochemical, Thermochaetoides thermophila; conditions: native SEC fraction, 4 mM α-ketoglutarate, 3 mM NAD+, 2 mM ThDP, 2 mM MgCl2, 100 mM NaCl, 30 mM K2HPO4 pH 7.5, 37 °C, CoA 5-1000 µM, substrate excess inhibition, linear asymptote used

Molecule | stoichiometry N [1] | Km [2]
dihydrolipoyl succinyltransferase (E2o) of the oxoglutarate dehydrogenase complex (enzyme) | 24 | –
B1 | – | 22.81 ± 11.93 µM
